Assays:
[1] = target: T1, hu-MCSP(D3 domain)-avi-his (human, UniProt Q6UVK1 1582-2224, biotinylated where used for selection or for coupling to the SA chip); experiment: SPR (ProteOn XPR36), IgG KD against parental M4-3/ML2
T1 construct: also called human MCSP(D3 domain)-avi-his; human MCSP D3
T1 sequence: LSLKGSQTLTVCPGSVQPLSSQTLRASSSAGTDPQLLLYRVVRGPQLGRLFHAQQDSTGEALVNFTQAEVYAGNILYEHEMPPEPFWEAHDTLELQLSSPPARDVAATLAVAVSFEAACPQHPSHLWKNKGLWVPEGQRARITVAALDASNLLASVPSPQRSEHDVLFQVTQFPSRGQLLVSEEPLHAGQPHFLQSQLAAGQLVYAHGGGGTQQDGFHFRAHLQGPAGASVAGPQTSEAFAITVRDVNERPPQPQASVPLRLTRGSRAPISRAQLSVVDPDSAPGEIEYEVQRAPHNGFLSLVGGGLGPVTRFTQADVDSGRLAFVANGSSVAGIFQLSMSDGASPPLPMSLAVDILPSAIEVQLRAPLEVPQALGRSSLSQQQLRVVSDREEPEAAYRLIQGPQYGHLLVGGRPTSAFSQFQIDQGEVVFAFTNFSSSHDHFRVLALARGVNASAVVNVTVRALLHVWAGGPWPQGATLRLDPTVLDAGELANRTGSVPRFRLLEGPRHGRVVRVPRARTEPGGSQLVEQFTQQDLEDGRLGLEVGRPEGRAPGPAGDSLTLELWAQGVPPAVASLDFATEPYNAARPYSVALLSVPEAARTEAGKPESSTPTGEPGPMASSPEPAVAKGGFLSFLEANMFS
Description: (§1) Briefly, carboxymethylated dextran biosensor chips (CM5, GE Healthcare) were activated with N-ethyl-N′-(3-dimethylaminopropyl)-carbodiimide hydrochloride (EDC) and N-hydroxysuccinimide (NHS) according to the supplier's instructions. Anti-human F(ab′)2 fragment specific capture antibody was diluted with 10 mM sodium acetate, pH 5.0 at 50 μg/ml before injection at a flow rate of 10 μl/minute to achieve approximately up to 10.000 response units (RU) of coupled capture antibody. Following the injection of the capture antibody, 1 M ethanolamine was injected to block unreacted groups. For kinetics measurements, Fabs from bacterial supernatant or purified Fabs are injected at a flow rate of 10 ul/minute for 300 s and a dissociation of 300 s for capture baseline stabilization. […] The surface of the sensorchip was regenerated by injection of glycine pH 1.5 for 30 s at 90 ul/min followed by injection of NaOH for 20 s at the same flow rate. Association rates (kon) and dissociation rates (koff) were calculated using a simple one-to-one Langmuir binding model (ProteOn XPR36 Evaluation Software or Scrubber software (BioLogic)) by simultaneously fitting the association and dissociation sensorgrams. The equilibrium dissociation constant (KD) was calculated as the ratio koff/kon. […] Since CDR1 and 2 of the light chain were randomized independent from CDR3, the obtained CDRs were combined during IgG conversion.
(§2) In the IgG format affinities were measured again to the human MCSP antigen (SEQ ID NO. 390), in addition also to the cynomolgus homologue (SEQ ID NO. 389). Method exactly as described for the Fab fragments, just purified IgG from mammalian production were used.

cynomolgus MCSP D3 = target: T2, cynomolgus MCSP D3 (cynomolgus, UniProt Q6UVK1 1582-2224 (human entry)); experiment: as above
T2 construct: also called cynomolgus homologue; not shown: C-terminal tag
T2 chain: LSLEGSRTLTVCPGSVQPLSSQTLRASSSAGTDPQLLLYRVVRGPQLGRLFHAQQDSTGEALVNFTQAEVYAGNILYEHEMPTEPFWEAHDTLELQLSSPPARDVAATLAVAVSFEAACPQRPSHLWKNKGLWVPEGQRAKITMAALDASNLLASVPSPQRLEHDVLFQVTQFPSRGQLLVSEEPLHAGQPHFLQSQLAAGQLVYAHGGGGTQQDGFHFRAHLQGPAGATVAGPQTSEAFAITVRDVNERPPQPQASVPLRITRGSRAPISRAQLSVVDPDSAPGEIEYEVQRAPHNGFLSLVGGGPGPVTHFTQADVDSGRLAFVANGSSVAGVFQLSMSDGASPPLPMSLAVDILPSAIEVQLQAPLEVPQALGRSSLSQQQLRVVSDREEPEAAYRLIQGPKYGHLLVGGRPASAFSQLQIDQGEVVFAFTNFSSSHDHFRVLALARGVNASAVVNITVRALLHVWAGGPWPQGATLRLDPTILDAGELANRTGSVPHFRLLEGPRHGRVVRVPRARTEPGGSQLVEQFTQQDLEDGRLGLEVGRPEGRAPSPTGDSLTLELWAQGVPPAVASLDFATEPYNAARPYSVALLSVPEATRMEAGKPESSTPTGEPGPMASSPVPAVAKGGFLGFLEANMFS
Description: as §1, §2

B1: M4-3(B7)/ML2 (IgG) (antibody, V domains shown)
VH: QVQLQESGPGLVKPSQTLSLTCTVSGGSITSGYYWNWIRQHPGKGLEWIGYITFDGINNYNPSLKSRVTISRDTSKNQFSLKLSSVTAADTAVYYCADFDYWGQGTLVTVSS
VL: DIQMTQSPSSLSASVGDRVTITCRASQGIRNYLNWYQQKPGKAPKLLIYYTSSLHSGVPSRFSGSGSGTDFTLTISSLQPEDFATYYCQQYSKLPWTFGQGTKVEIK
notes: Human IgG1 format
[1]
  Comparative binding affinity - Fold increase over parent: 4 fold
Cynomolgus MCSP D3
  Comparative binding affinity - Fold increase over parent: 2.9 fold

B2: M4-3/ML2(G3) (IgG) (antibody, V domains shown)
VH: QVQLQESGPGLVKPSQTLSLTCTVSGGSITSGYYWNWIRQHPGKGLEWIGYITYDGSNNYNPSLKSRVTISRDTSKNQFSLKLSSVTAADTAVYYCADFDYWGQGTLVTVSS
VL: DIQMTQSPSSLSASVGDRVTITCRASQGIRNYLNWYQQKPGKAPKLLIYYTSSLHSGVPSRFSGSGSGTDYTLTISSLQPEDFATYYCQQYSALPWTFGQGTKVEIK
notes: Human IgG1 format
[1]
  Comparative binding affinity - Fold increase over parent: 6.7 fold
Cynomolgus MCSP D3
  Comparative binding affinity - Fold increase over parent: 3.3 fold

B3: M4-3(A7)/ML2 (IgG) (antibody, V domains shown)
VH: QVQLQESGPGLVKPSQTLSLTCTVSGGSITDGYYWNWIRQHPGKGLEWIGYITFDGRNNYNPSLKSRVTISRDTSKNQFSLKLSSVTAADTAVYYCADFDYWGQGTLVTVSS
VL: DIQMTQSPSSLSASVGDRVTITCRASQGIRNYLNWYQQKPGKAPKLLIYYTSSLHSGVPSRFSGSGSGTDFTLTISSLQPEDFATYYCQQYSKLPWTFGQGTKVEIK
notes: Human IgG1 format
[1]
  Comparative binding affinity - Fold increase over parent: 2.5 fold
Cynomolgus MCSP D3
  Comparative binding affinity - Fold increase over parent: 2 fold

B4: M4-3/ML2 (E10) (IgG) (antibody, V domains shown)
VH: QVQLQESGPGLVKPSQTLSLTCTVSGGSITSGYYWNWIRQHPGKGLEWIGYITYDGSNNYNPSLKSRVTISRDTSKNQFSLKLSSVTAADTAVYYCADFDYWGQGTLVTVSS
VL: DIQMTQSPSSLSASVGDRVTITCRASYGIRGYLNWYQQKPGKAPKLLIYYTSSLHSGVPSRFSGSGSGTDFTLTISSLQPEDFATYHCQQYSKLPWTFGQGTKVEIK
notes: Human IgG1 format
[1]
  Comparative binding affinity - Fold increase over parent: 2 fold
Cynomolgus MCSP D3
  Comparative binding affinity - Fold increase over parent: 1 fold

B5: M4-3(A7)/ML2(E10) (IgG) (antibody, V domains shown)
VH: QVQLQESGPGLVKPSQTLSLTCTVSGGSITDGYYWNWIRQHPGKGLEWIGYITFDGRNNYNPSLKSRVTISRDTSKNQFSLKLSSVTAADTAVYYCADFDYWGQGTLVTVSS
VL: DIQMTQSPSSLSASVGDRVTITCRASYGIRGYLNWYQQKPGKAPKLLIYYTSSLHSGVPSRFSGSGSGTDFTLTISSLQPEDFATYHCQQYSKLPWTFGQGTKVEIK
notes: Human IgG1 format
[1]
  Comparative binding affinity - Fold increase over parent: 6.7 fold
Cynomolgus MCSP D3
  Comparative binding affinity - Fold increase over parent: 2.9 fold

B6: M4-3(C1)/ML2 (IgG) (antibody, V domains shown)
VH: QVQLQESGPGLVKPSQTLSLTCTVSGGSITSGYYWNWIRQHPGKGLEWIGYITFDGSNNYNPSLKSRVTISRDTSKNQFSLKLSSVTAADTAVYYCADFDYWGQGTLVTVSS
VL: DIQMTQSPSSLSASVGDRVTITCRASQGIRNYLNWYQQKPGKAPKLLIYYTSSLHSGVPSRFSGSGSGTDFTLTISSLQPEDFATYYCQQYSKLPWTFGQGTKVEIK
notes: Human IgG1 format
[1]
  Comparative binding affinity - Fold increase over parent: 2.2 fold
Cynomolgus MCSP D3
  Comparative binding affinity - Fold increase over parent: 2.5 fold

B7: M4-3(C1)/ML2(E10) (IgG) (antibody, V domains shown)
VH: QVQLQESGPGLVKPSQTLSLTCTVSGGSITSGYYWNWIRQHPGKGLEWIGYITFDGSNNYNPSLKSRVTISRDTSKNQFSLKLSSVTAADTAVYYCADFDYWGQGTLVTVSS
VL: DIQMTQSPSSLSASVGDRVTITCRASYGIRGYLNWYQQKPGKAPKLLIYYTSSLHSGVPSRFSGSGSGTDFTLTISSLQPEDFATYHCQQYSKLPWTFGQGTKVEIK
notes: Human IgG1 format
[1]
  Comparative binding affinity - Fold increase over parent: 4 fold
Cynomolgus MCSP D3
  Comparative binding affinity - Fold increase over parent: 3.3 fold

B8: M4-3(A7)/ML2(G3) (IgG) (antibody, V domains shown)
VH: QVQLQESGPGLVKPSQTLSLTCTVSGGSITDGYYWNWIRQHPGKGLEWIGYITFDGRNNYNPSLKSRVTISRDTSKNQFSLKLSSVTAADTAVYYCADFDYWGQGTLVTVSS
VL: DIQMTQSPSSLSASVGDRVTITCRASQGIRNYLNWYQQKPGKAPKLLIYYTSSLHSGVPSRFSGSGSGTDYTLTISSLQPEDFATYYCQQYSALPWTFGQGTKVEIK
notes: Human IgG1 format
[1]
  Comparative binding affinity - Fold increase over parent: 28.6 fold
Cynomolgus MCSP D3
  Comparative binding affinity - Fold increase over parent: 10 fold

B9: M4-3(D6)/ML2 (IgG) (antibody, V domains shown)
VH: QVQLQESGPGLVKPSQTLSLTCTVSGGSITSGYYWNWIRQHPGKGLEWIGYITFDGKNNYNPSLKSRVTISRDTSKNQFSLKLSSVTAADTAVYYCADFDYWGQGTLVTVSS
VL: DIQMTQSPSSLSASVGDRVTITCRASQGIRNYLNWYQQKPGKAPKLLIYYTSSLHSGVPSRFSGSGSGTDFTLTISSLQPEDFATYYCQQYSKLPWTFGQGTKVEIK
notes: Human IgG1 format
[1]
  Comparative binding affinity - Fold increase over parent: 5 fold
Cynomolgus MCSP D3
  Comparative binding affinity - Fold increase over parent: 2 fold

B10: M4-3(C1)/ML2(C5) (IgG) (antibody, V domains shown)
VH: QVQLQESGPGLVKPSQTLSLTCTVSGGSITSGYYWNWIRQHPGKGLEWIGYITFDGSNNYNPSLKSRVTISRDTSKNQFSLKLSSVTAADTAVYYCADFDYWGQGTLVTVSS
VL: DIQMTQSPSSLSASVGDRVTITCRASRGIREYLNWYQQKPGKAPKLLIYYTGSLHSGVPSRFSGSGSGTDFTLTISSLQPEDFATYYCQQYSELPWTFGQGTKVEIK
notes: Human IgG1 format
[1]
  Comparative binding affinity - Fold increase over parent: 10 fold
Cynomolgus MCSP D3
  Comparative binding affinity - Fold increase over parent: 6.7 fold

B11: M4-3/ML2 (C5/G3) (IgG) (antibody, V domains shown)
VH: QVQLQESGPGLVKPSQTLSLTCTVSGGSITSGYYWNWIRQHPGKGLEWIGYITYDGSNNYNPSLKSRVTISRDTSKNQFSLKLSSVTAADTAVYYCADFDYWGQGTLVTVSS
VL: DIQMTQSPSSLSASVGDRVTITCRASRGIREYLNWYQQKPGKAPKLLIYYTGSLHSGVPSRFSGSGSGTDFTLTISSLQPEDFATYYCQQYSALPWTFGQGTKVEIK
notes: Human IgG1 format
[1]
  Comparative binding affinity - Fold increase over parent: 2.9 fold
Cynomolgus MCSP D3
  Comparative binding affinity - Fold increase over parent: 2 fold

B12: M4-3(B8)/ML2 (IgG) (antibody, V domains shown)
VH: QVQLQESGPGLVKPSQTLSLTCTVSGGSITSGYYWNWIRQHPGKGLEWIGYITFDGRNNYNPSLKSRVTISRDTSKNQFSLKLSSVTAADTAVYYCADFDYWGQGTLVTVSS
VL: DIQMTQSPSSLSASVGDRVTITCRASQGIRNYLNWYQQKPGKAPKLLIYYTSSLHSGVPSRFSGSGSGTDFTLTISSLQPEDFATYYCQQYSKLPWTFGQGTKVEIK
notes: Human IgG1 format
[1]
  Comparative binding affinity - Fold increase over parent: 2.2 fold
Cynomolgus MCSP D3
  Comparative binding affinity - Fold increase over parent: 2 fold

B13: M4-3/ML2 (C5) (IgG) (antibody, V domains shown)
VH: QVQLQESGPGLVKPSQTLSLTCTVSGGSITSGYYWNWIRQHPGKGLEWIGYITYDGSNNYNPSLKSRVTISRDTSKNQFSLKLSSVTAADTAVYYCADFDYWGQGTLVTVSS
VL: DIQMTQSPSSLSASVGDRVTITCRASRGIREYLNWYQQKPGKAPKLLIYYTGSLHSGVPSRFSGSGSGTDFTLTISSLQPEDFATYYCQQYSELPWTFGQGTKVEIK
notes: Human IgG1 format
[1]
  Comparative binding affinity - Fold increase over parent: 5 fold
Cynomolgus MCSP D3
  Comparative binding affinity - Fold increase over parent: 2 fold

From patent US20180086849A1 (Hoffmann-La Roche, published 2018)
